The record followed here is patent US20060246084A1.

Broadly, the Kd is the concentration at which binding is half-saturated.

The assay concerns the target synthetic fragment of the mouse TLR-2 extracellular domain (mouse).

B1: LcrV193-210 synthetic peptide (peptide)
peptide: LMDKNLYGYTDEEIFKAS
modifications: not checked
In turn, B1 had a Kd of 0.35 nM.
